Results as given in patent US20220249633A1.
Each block holds one binder with its values, some of them ahead of it.

Molecular target: HLA-A*24 (human)
Assay: UV-exchange ELISA, exchange yield grade

peptide exchange yield: > 75%
Binder: QYILAVPVL [… (SEQ ID NO: 99)]

peptide exchange yield: 50 to 75%
Binder: VYPFENFEF [… (SEQ ID NO: 102)]

peptide exchange yield: 50 to 75%
Binder: NYIPVKNGKQF [… (SEQ ID NO: 103)]

peptide exchange yield: 50 to 75%
Binder: IYNETVRDLL [… (SEQ ID NO: 106)]

peptide exchange yield: 50 to 75%
Binder: PYLVVIHTL [… (SEQ ID NO: 108)]

peptide exchange yield: > 75%
Binder: LFITGGQFF [… (SEQ ID NO: 109)]

peptide exchange yield: 50 to 75%
Binder: SYPKIIEEF [… (SEQ ID NO: 110)]

peptide exchange yield: 50 to 75%
Binder: IYNFVESKL [… (SEQ ID NO: 112)]

peptide exchange yield: > 75%
Binder: QYLDGTWSL [… (SEQ ID NO: 114)]

peptide exchange yield: 50 to 75%
Binder: IYLSDLTYI [… (SEQ ID NO: 117)]

peptide exchange yield: > 75%
Binder: GYIEHFSLW [… (SEQ ID NO: 120)]

peptide exchange yield: 50 to 75%
Binder: EYQARIPEF [… (SEQ ID NO: 122)]

peptide exchange yield: 20 to 49%
Binder: VYTPVLEHL [… (SEQ ID NO: 123)]

peptide exchange yield: < 20%
Binder: TYKDYVDLF [… (SEQ ID NO: 124)]

peptide exchange yield: > 75%
Binder: KYIDYLMTW [… (SEQ ID NO: 129)]

peptide exchange yield: 50 to 75%
Binder: EYLDRIGQLFF [… (SEQ ID NO: 131)]

peptide exchange yield: 50 to 75%
Binder: SYNGHLTIWF [… (SEQ ID NO: 141)]

peptide exchange yield: 50 to 75%
Binder: KYIFQLNEI [… (SEQ ID NO: 143)]

peptide exchange yield: 50 to 75%
Binder: LYLAFPLAF [… (SEQ ID NO: 147)]

peptide exchange yield: > 75%
Binder: SYGTVSQI [SYGTVSQI (SEQ ID NO: 149)]

peptide exchange yield: 20 to 49%
Binder: KFFDDLGDELLF [… (SEQ ID NO: 152)]

peptide exchange yield: > 75%
Binder: IYKWITDNF [… (SEQ ID NO: 155)]

The remaining lines, values behind:

Binder: YYTQYSQTI [… (SEQ ID NO: 96)]
peptide exchange yield: > 75%

Binder: TYTFLKETF [… (SEQ ID NO: 97)]
peptide exchange yield: > 75%

Binder: VFPRLHNVLF [… (SEQ ID NO: 98)]
peptide exchange yield: 50 to 75%

Binder: VYIESRIGTSTSF [… (SEQ ID NO: 100)]
peptide exchange yield: 50 to 75%

Binder: SYLTWHQQI [… (SEQ ID NO: 104)]
peptide exchange yield: > 75%

Binder: IYNETITDLL [… (SEQ ID NO: 105)]
peptide exchange yield: 50 to 75%

Binder: KYFPYLVVI [… (SEQ ID NO: 107)]
peptide exchange yield: 50 to 75%

Binder: VYVQILQKL [… (SEQ ID NO: 111)]
peptide exchange yield: 50 to 75%

Binder: IYSFHTLSF [… (SEQ ID NO: 113)]
peptide exchange yield: 50 to 75%

Binder: RYLNKSFVL [… (SEQ ID NO: 115)]
peptide exchange yield: 50 to 75%

Binder: AYVIAVHLF [… (SEQ ID NO: 116)]
peptide exchange yield: > 75%

Binder: KYLNSVQYI [… (SEQ ID NO: 118)]
peptide exchange yield: 50 to 75%

Binder: VYRVYVTTF [… (SEQ ID NO: 119)]
peptide exchange yield: 50 to 75%

Binder: RYGLPAAWSTF [… (SEQ ID NO: 121)]
peptide exchange yield: 50 to 75%

Binder: VFSRDFGLLVF [… (SEQ ID NO: 125)]
peptide exchange yield: 50 to 75%

Binder: QYFTGNPLF [… (SEQ ID NO: 127)]
peptide exchange yield: 50 to 75%

Binder: VYPFDWQYI [… (SEQ ID NO: 128)]
peptide exchange yield: > 75%

Binder: RYPALFPVL [… (SEQ ID NO: 132)]
peptide exchange yield: > 75%

Binder: KYLEDMKTYF [… (SEQ ID NO: 133)]
peptide exchange yield: 50 to 75%

Binder: AYIPTPIYF [… (SEQ ID NO: 134)]
peptide exchange yield: 50 to 75%

Binder: VYEAMVPLF [… (SEQ ID NO: 135)]
peptide exchange yield: > 75%

Binder: IYPEWPVVFF [… (SEQ ID NO: 136)]
peptide exchange yield: 50 to 75%

Binder: EYLHNCSYF [… (SEQ ID NO: 137)]
peptide exchange yield: > 75%

Binder: VYNAVSTSF [… (SEQ ID NO: 138)]
peptide exchange yield: 20 to 49%

Binder: IFGIFPNQF [… (SEQ ID NO: 139)]
peptide exchange yield: 50 to 75%

Binder: RYLINSYDF [… (SEQ ID NO: 140)]
peptide exchange yield: > 75%

Binder: VFASLPGFLF [… (SEQ ID NO: 144)]
peptide exchange yield: > 75%

Binder: VYALKVRTI [… (SEQ ID NO: 145)]
peptide exchange yield: 50 to 75%

Binder: NYYERIHAL [… (SEQ ID NO: 146)]
peptide exchange yield: 50 to 75%

Binder: SYGTVSQIF [… (SEQ ID NO: 148)]
peptide exchange yield: > 75%

Binder: VYVPFGGKSMITF [… (SEQ ID NO: 153)]
peptide exchange yield: > 75%

Binder: VYGVPTPHF [… (SEQ ID NO: 154)]
peptide exchange yield: > 75%
